Results from patent US20030162734.

Tests used:
[1] = biological target: DENN-JBD (JNK binding domain region of DENN lacking the NLS and DD regions, fused to the C-terminus of EGFP) (UniProt Q8WXG6)
[2] = biological target: GFP-DENN (full length DENN/MADD fused to the C-terminus of EGFP) (UniProt Q8WXG6)

JNK (c-Jun N-terminal kinase), endogenous in NSC19 cells; p54 and p46 isoforms of phosphorylated JNK
p54 band of phosphorylated JNK on Western immunoblot, NSC19 clones, 24 h Aβ exposure [1]: DENN and DENN-JBD affected 3 to 4-fold increase in the p54 band with Aβ exposure
phosphorylated c-Jun (Ser73) on immunoblot, NSC19 clones [1]: Expression of ΔMEKK1, DENN, DENN-CT and DENN-JBD showed sustained levels of phosphorylated c-Jun
p54 band of phosphorylated JNK on Western immunoblot, NSC19 clones, 24 h Aβ exposure [2]: DENN and DENN-JBD affected 3 to 4-fold increase in the p54 band with Aβ exposure
